# Results taken from article PMC13181761, “New Analogs of the Compstatin Family of Clinical Complement Inhibitors with Low Picomolar Target Affinity” (Journal of Medicinal Chemistry, 2026).
# Columns and labels:
# human C3b (human) [1] = biological target: human C3b (human) (UniProt P01024); assay: SPR; Biacore T200; human C3b amine-coupled; multicycle kinetics, serial 2-fold dilutions of peptide, 120 s injection, 180 s dissociation, regeneration 1 M NaCl; 25 °C, HBST pH 7.4; Langmuir 1:1 fit, KD = kd/ka; mean of 3 experiments
# human C3b (human) [2] = biological target: human C3b (human) (UniProt P01024); assay: SPR; Biacore T200; human C3b amine-coupled; 25 °C, HBST pH 7.4; KD determined as steady state affinity
# human C3b (human) [3] = biological target: human C3b (human) (UniProt P01024)
# human C3b (human) [4] = biological target: human C3b (human) (UniProt P01024); assay: SPR; Biacore T200; human C3b amine-coupled; single-cycle kinetics, 5 increasing concentrations (0.5-40 nM), final dissociation 100-240 min; 25 °C, HBST pH 7.4; global Langmuir 1:1 fit; mean of 3 experiments
# human C3b (human) [5] = biological target: human C3b (human) (UniProt P01024); remark: listed apart in the source
Substance,Kd (human C3b (human) [1]) [nM],koff (human C3b (human) [1]) [s⁻¹],kon (human C3b (human) [1]) [M⁻¹ s⁻¹],also measured
Cp01 Arg11Lys analog (peptide),502,0.15,300000,
Cp01 Arg11Ser analog (peptide),529,0.16,330000,
Cp01 Asp6Asn analog (peptide),219,0.11,540000,
Cp01 Asp6Glu analog (peptide),528,0.18,380000,
Cp01 Asp6Ser analog (peptide),609,0.18,310000,
Cp01 Val3Leu analog (peptide),552,0.11,200000,
Cp01 aIle3 analog (peptide),,,,Kd (human C3b (human) [2]): 545 nM
Cp01-V3I (peptide),19.8,0.017,880000,"IC50 of inhibition of alternative pathway complement activation (AP ELISA, diluted normal human serum; the target in serum is C3) (human C3b (human) [3]): 200 nM; IC50 of inhibition of classical pathway complement activation (CP ELISA, diluted normal human serum; the target in serum is C3) (human C3b (human) [3]): 430 nM"
Cp05 Ile3 analog (peptide),1.5,0.002,1.14e+06,
Cp40 aIle3 analog (peptide),,,,Kd (human C3b (human) [4]): 15.6 nM; koff (human C3b (human) [4]): 0.007 s⁻¹; kon (human C3b (human) [4]): 460000 M⁻¹ s⁻¹
compstatin analog Cp01 (peptide),,,,"IC50 of inhibition of alternative pathway complement activation (AP ELISA, diluted normal human serum; the target in serum is C3) (human C3b (human) [3]): 1400 nM; IC50 of inhibition of classical pathway complement activation (CP ELISA, diluted normal human serum; the target in serum is C3) (human C3b (human) [3]): 20000 nM"
compstatin analog Cp05 (peptide),46.8,0.014,300000,
compstatin analog Cp40 (peptide),,,,"Kd (human C3b (human) [4]): 0.7 nM; koff (human C3b (human) [4]): 0.001 s⁻¹; kon (human C3b (human) [4]): 1.76e+06 M⁻¹ s⁻¹; IC50 of inhibition of classical pathway complement activation (CP ELISA, 5% human serum) (human C3b (human) [5]): 158 nM"
compstatin analog Cp60 (peptide),,,,"Kd (human C3b (human) [4]): 0.08 nM; koff (human C3b (human) [4]): 0.0001 s⁻¹; kon (human C3b (human) [4]): 1.76e+06 M⁻¹ s⁻¹; target residence (human C3b (human) [4]): > 100 min; IC50 of inhibition of classical pathway complement activation (CP ELISA, 5% human serum) (human C3b (human) [5]): 97 nM"
